# Measured values from article PMC314469, “Protein Interaction Networks by Proteome Peptide Scanning” (PLoS Biology, 2004).
# T1: Boi1 SH3 (BOI1_YEAST), P38041
# T1 chain: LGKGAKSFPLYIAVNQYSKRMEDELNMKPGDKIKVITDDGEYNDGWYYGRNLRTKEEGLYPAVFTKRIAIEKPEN
# T2: Boi2 SH3 (BOI2_YEAST), P39969
# T2 chain: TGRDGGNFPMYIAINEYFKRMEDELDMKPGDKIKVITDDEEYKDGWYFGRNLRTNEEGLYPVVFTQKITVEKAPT
# T3: Myo5 SH3 (MYO5_YEAST), Q04439
# T3 chain: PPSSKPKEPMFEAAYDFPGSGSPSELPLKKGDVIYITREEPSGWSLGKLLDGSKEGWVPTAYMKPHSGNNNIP
# T4: Rvs167 SH3 (RV167_YEAST), P39743
# T4 chain: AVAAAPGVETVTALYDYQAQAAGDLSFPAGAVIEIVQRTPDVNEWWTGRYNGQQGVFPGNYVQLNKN
# T5: Yfr024 SH3 (LSB3_YEAST), P43603
# T5 chain: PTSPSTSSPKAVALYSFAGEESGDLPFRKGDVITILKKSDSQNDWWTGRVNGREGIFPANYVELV
# T6: Yhr016c SH3 (YSC84_YEAST), P32793
# T6 chain: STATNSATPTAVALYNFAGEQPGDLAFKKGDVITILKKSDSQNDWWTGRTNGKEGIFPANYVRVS
# Target: T1, Boi1 SH3 (BOI1_YEAST), P38041
# Assay: SPOT array
row,Binder,"normalised SPOT signal, Boehringer light units (BLU); mean over the file's lines of this peptide"
1,GNNSRNIPPPPPPP [YMR089C 148-161],61.5
2,GTTNRGPPPLPPRA [YLR144C 18-31],49900
3,GLVLRSTPVIPDMK [YPR019W 330-343],116
4,GRHLKNIPRIPIFS [YLR106C 2506-2519],702
5,GYDEKGNPIPPNNW [YJL216C 137-150],70
6,GQIDRDKPSEPERT [YJL184W 45-58],15
7,GYNPKTVPFVPISG [YBR118W 180-193],39.8
8,HEASKSFPKAPQAS [YKL105C 877-890],0
9,GTGRRRSPSTPIMP [YNR047W 192-205],625

# Next, values leading:
row,"normalised SPOT signal, Boehringer light units (BLU); mean over the file's lines of this peptide",Binder
1,133,GSQWKNHPDWPFWV [YLR057W 726-739]
2,144,GTVTKTAPSFPQSS [YPL075W 604-617]
3,907,GSLVKTKPTLPLTK [YLR339C 59-72]
4,370,GRSLRKRPTSPSIS [YJR059W 48-61]
5,1200,GQQKRFSPSLPSAV [YKL088W 110-123]
6,129,GSYIKRTPKIPEKD [YDR026C 219-232]
7,148,GTRPKILPKIPTGA [YOR227W 1148-1161]

# Target: T2, Boi2 SH3 (BOI2_YEAST), P39969
# Assay: SPOT array
row,Binder,"normalised SPOT signal, Boehringer light units (BLU); mean over the file's lines of this peptide"
1,GNNSRNIPPPPPPP [YMR089C 148-161],14.2
2,GTTNRGPPPLPPRA [YLR144C 18-31],30.6
3,GLVLRSTPVIPDMK [YPR019W 330-343],126
4,GRHLKNIPRIPIFS [YLR106C 2506-2519],6.1
5,GYDEKGNPIPPNNW [YJL216C 137-150],33.1
6,GQIDRDKPSEPERT [YJL184W 45-58],21
7,GYNPKTVPFVPISG [YBR118W 180-193],5.8
8,HEASKSFPKAPQAS [YKL105C 877-890],7.4
9,GTGRRRSPSTPIMP [YNR047W 192-205],52

# Now from value to binder:
row,"normalised SPOT signal, Boehringer light units (BLU); mean over the file's lines of this peptide",Binder
1,9.6,GSQWKNHPDWPFWV [YLR057W 726-739]
2,135,GTVTKTAPSFPQSS [YPL075W 604-617]
3,25.5,GSLVKTKPTLPLTK [YLR339C 59-72]
4,119,GRSLRKRPTSPSIS [YJR059W 48-61]
5,9.3,GQQKRFSPSLPSAV [YKL088W 110-123]
6,32.5,GSYIKRTPKIPEKD [YDR026C 219-232]
7,27.1,GTRPKILPKIPTGA [YOR227W 1148-1161]

# Target: T3, Myo5 SH3 (MYO5_YEAST), Q04439
# Assay: SPOT array
row,Binder,"normalised SPOT signal, Boehringer light units (BLU); mean over the file's lines of this peptide"
1,GNNSRNIPPPPPPP [YMR089C 148-161],10300
2,GTTNRGPPPLPPRA [YLR144C 18-31],39900
3,GLVLRSTPVIPDMK [YPR019W 330-343],209
4,GRHLKNIPRIPIFS [YLR106C 2506-2519],1040
5,GYDEKGNPIPPNNW [YJL216C 137-150],96
6,GQIDRDKPSEPERT [YJL184W 45-58],100
7,GYNPKTVPFVPISG [YBR118W 180-193],108
8,HEASKSFPKAPQAS [YKL105C 877-890],289
9,GTGRRRSPSTPIMP [YNR047W 192-205],921

# Next, values leading:
row,"normalised SPOT signal, Boehringer light units (BLU); mean over the file's lines of this peptide",Binder
1,108,GSQWKNHPDWPFWV [YLR057W 726-739]
2,261,GTVTKTAPSFPQSS [YPL075W 604-617]
3,422,GSLVKTKPTLPLTK [YLR339C 59-72]
4,820,GRSLRKRPTSPSIS [YJR059W 48-61]
5,728,GQQKRFSPSLPSAV [YKL088W 110-123]
6,206,GSYIKRTPKIPEKD [YDR026C 219-232]
7,773,GTRPKILPKIPTGA [YOR227W 1148-1161]

# Target: T4, Rvs167 SH3 (RV167_YEAST), P39743
# Assay: SPOT array
row,Binder,"normalised SPOT signal, Boehringer light units (BLU); mean over the file's lines of this peptide"
1,GNNSRNIPPPPPPP [YMR089C 148-161],49.6
2,GTTNRGPPPLPPRA [YLR144C 18-31],88000
3,GLVLRSTPVIPDMK [YPR019W 330-343],5260
4,GRHLKNIPRIPIFS [YLR106C 2506-2519],176
5,GYDEKGNPIPPNNW [YJL216C 137-150],46.1
6,GQIDRDKPSEPERT [YJL184W 45-58],47.7
7,GYNPKTVPFVPISG [YBR118W 180-193],25
8,HEASKSFPKAPQAS [YKL105C 877-890],13.4
9,GTGRRRSPSTPIMP [YNR047W 192-205],92.4

# Now from value to binder:
row,"normalised SPOT signal, Boehringer light units (BLU); mean over the file's lines of this peptide",Binder
1,46.8,GSQWKNHPDWPFWV [YLR057W 726-739]
2,63.6,GTVTKTAPSFPQSS [YPL075W 604-617]
3,21.1,GSLVKTKPTLPLTK [YLR339C 59-72]
4,1120,GRSLRKRPTSPSIS [YJR059W 48-61]
5,111,GQQKRFSPSLPSAV [YKL088W 110-123]
6,153,GSYIKRTPKIPEKD [YDR026C 219-232]
7,22.1,GTRPKILPKIPTGA [YOR227W 1148-1161]

# Target: Sho1 SH3 (SHO1_YEAST), P40073
# Assay: SPOT array
# Chain of Sho1 SH3 (SHO1_YEAST), P40073 (P40073 295-366): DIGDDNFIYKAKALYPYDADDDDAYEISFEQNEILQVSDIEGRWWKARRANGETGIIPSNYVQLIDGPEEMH
row,Binder,"normalised SPOT signal, Boehringer light units (BLU); mean over the file's lines of this peptide"
1,GNNSRNIPPPPPPP [YMR089C 148-161],28.3
2,GTTNRGPPPLPPRA [YLR144C 18-31],626
3,GLVLRSTPVIPDMK [YPR019W 330-343],60.9
4,GRHLKNIPRIPIFS [YLR106C 2506-2519],198
5,GYDEKGNPIPPNNW [YJL216C 137-150],66.3
6,GQIDRDKPSEPERT [YJL184W 45-58],43.8
7,GYNPKTVPFVPISG [YBR118W 180-193],25
8,HEASKSFPKAPQAS [YKL105C 877-890],70.5
9,GTGRRRSPSTPIMP [YNR047W 192-205],52.3

# More lines, now with the values ahead:
row,"normalised SPOT signal, Boehringer light units (BLU); mean over the file's lines of this peptide",Binder
1,14.5,GSQWKNHPDWPFWV [YLR057W 726-739]
2,25.5,GTVTKTAPSFPQSS [YPL075W 604-617]
3,22.8,GSLVKTKPTLPLTK [YLR339C 59-72]
4,44.9,GRSLRKRPTSPSIS [YJR059W 48-61]
5,47.2,GQQKRFSPSLPSAV [YKL088W 110-123]
6,554,GSYIKRTPKIPEKD [YDR026C 219-232]
7,11800,GTRPKILPKIPTGA [YOR227W 1148-1161]

# Target: T5, Yfr024 SH3 (LSB3_YEAST), P43603
# Assay: SPOT array
row,Binder,"normalised SPOT signal, Boehringer light units (BLU); mean over the file's lines of this peptide"
1,GNNSRNIPPPPPPP [YMR089C 148-161],62
2,GTTNRGPPPLPPRA [YLR144C 18-31],43600
3,GLVLRSTPVIPDMK [YPR019W 330-343],2380
4,GRHLKNIPRIPIFS [YLR106C 2506-2519],947
5,GYDEKGNPIPPNNW [YJL216C 137-150],0
6,GQIDRDKPSEPERT [YJL184W 45-58],68.7
7,GYNPKTVPFVPISG [YBR118W 180-193],13.3
8,HEASKSFPKAPQAS [YKL105C 877-890],27.3
9,GTGRRRSPSTPIMP [YNR047W 192-205],802

# Now from value to binder:
row,"normalised SPOT signal, Boehringer light units (BLU); mean over the file's lines of this peptide",Binder
1,69.9,GSQWKNHPDWPFWV [YLR057W 726-739]
2,20,GTVTKTAPSFPQSS [YPL075W 604-617]
3,509,GSLVKTKPTLPLTK [YLR339C 59-72]
4,440,GRSLRKRPTSPSIS [YJR059W 48-61]
5,697,GQQKRFSPSLPSAV [YKL088W 110-123]
6,436,GSYIKRTPKIPEKD [YDR026C 219-232]
7,432,GTRPKILPKIPTGA [YOR227W 1148-1161]

# Target: T6, Yhr016c SH3 (YSC84_YEAST), P32793
# Assay: SPOT array
row,Binder,"normalised SPOT signal, Boehringer light units (BLU); mean over the file's lines of this peptide"
1,GNNSRNIPPPPPPP [YMR089C 148-161],15.8
2,GTTNRGPPPLPPRA [YLR144C 18-31],69100
3,GLVLRSTPVIPDMK [YPR019W 330-343],302
4,GRHLKNIPRIPIFS [YLR106C 2506-2519],69.5
5,GYDEKGNPIPPNNW [YJL216C 137-150],9.3
6,GQIDRDKPSEPERT [YJL184W 45-58],37.9
7,GYNPKTVPFVPISG [YBR118W 180-193],37.2
8,HEASKSFPKAPQAS [YKL105C 877-890],26.5
9,GTGRRRSPSTPIMP [YNR047W 192-205],24

# Results, then the binder that gave them:
row,"normalised SPOT signal, Boehringer light units (BLU); mean over the file's lines of this peptide",Binder
1,18.7,GSQWKNHPDWPFWV [YLR057W 726-739]
2,45.4,GTVTKTAPSFPQSS [YPL075W 604-617]
3,82.1,GSLVKTKPTLPLTK [YLR339C 59-72]
4,106,GRSLRKRPTSPSIS [YJR059W 48-61]
5,140,GQQKRFSPSLPSAV [YKL088W 110-123]
6,52,GSYIKRTPKIPEKD [YDR026C 219-232]
7,31.6,GTRPKILPKIPTGA [YOR227W 1148-1161]
